Test results published in PMC6393540, “A dual role in regulation and toxicity for the disordered N-terminus of the toxin GraT”.

Legend:
[1] = target: N-terminally His-tagged antitoxin GraA (Pseudomonas putida); assay: crystal structure; crystal of hisGraA2, 1.96 Å, data at 100 K
[2] = target: N-terminally His-tagged antitoxin GraA (Pseudomonas putida); assay: crystal structure; crystal of hisGraA2 with the 33 bp graTA operator DNA, 3.8 Å, data at 100 K
[3] = target: N-terminally His-tagged antitoxin GraA (Pseudomonas putida); assay: native MS; GraA2 (20 μM dimer) mixed with operator DNA duplex at 1:1, 2:1 and 4:1, 40 mM ammonium acetate pH 7, nano-electrospray
[4] = target: T1, GraA (antitoxin; His-GraA2) (Pseudomonas putida (PaW85?)) (UniProt Q88MI6); assay: ITC; details: ITC: 50 mM Tris pH 8.0, 250 mM NaCl, 2 mM β-mercaptoethanol (TCEP in purification for ITC), 25 °C; EMSA: 5 µM DNA, 30 min at room temperature, 6% native PAGE …
T1 sequence: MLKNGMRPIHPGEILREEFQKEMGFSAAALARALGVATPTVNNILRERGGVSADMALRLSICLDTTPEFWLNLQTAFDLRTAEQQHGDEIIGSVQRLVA

[5] = target: untagged antitoxin GraA co-expressed with His-tagged GraT (Pseudomonas putida); assay: crystal structure; crystal of the co-expressed and co-purified hisGraT2A2 complex, 2.2 Å, data at 100 K
[6] = target: T2, GraA (antitoxin; His-GraA2) (Pseudomonas putida, UniProt Q88MI6 1-99); assay: ITC; macroscopic; ITC: 50 mM Tris pH 8.0, 250 mM NaCl, 2 mM β-mercaptoethanol (TCEP in purification for ITC), 25 °C; EMSA: 5 µM DNA, 30 min at room temperature, 6% native PAGE in TBE on ice; details: protein: recombinant; tags: N-terminal His6; chain copies: 4
T2 sequence: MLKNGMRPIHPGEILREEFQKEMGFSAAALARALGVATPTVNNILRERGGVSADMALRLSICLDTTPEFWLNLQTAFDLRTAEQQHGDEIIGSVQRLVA

[7] = target: T3, GraT (toxin) in GraT2A2 complex;GraA (untagged) in GraT2A2 complex (Pseudomonas putida;Pseudomonas putida, UniProt Q88MI5;Q88MI6 1-92;1-99, |); assay: as above; details: protein: recombinant;recombinant; tags: N-terminal His6;none; chain copies: 2;2
T3 sequence 1: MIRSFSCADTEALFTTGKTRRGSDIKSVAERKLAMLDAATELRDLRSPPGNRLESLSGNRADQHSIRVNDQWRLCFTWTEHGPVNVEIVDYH
T3 sequence 2: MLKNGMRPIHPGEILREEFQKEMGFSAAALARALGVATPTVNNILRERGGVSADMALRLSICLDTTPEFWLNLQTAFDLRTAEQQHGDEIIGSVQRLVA

[8] = target: T2, GraA (antitoxin; His-GraA2); assay: ITC; macroscopic, 2 dimers per DNA; text also gives 3.1e13; ITC: 50 mM Tris pH 8.0, 250 mM NaCl, 2 mM β-mercaptoethanol (TCEP in purification for ITC), 25 °C; EMSA: 5 µM DNA, 30 min at room temperature, 6% native PAGE in TBE on ice; details: protein: recombinant; tags: N-terminal His6; chain copies: 4
[9] = target: T2, GraA (antitoxin; His-GraA2); assay: ITC; N.D., binding too weak; ITC: 50 mM Tris pH 8.0, 250 mM NaCl, 2 mM β-mercaptoethanol (TCEP in purification for ITC), 25 °C; EMSA: 5 µM DNA, 30 min at room temperature, 6% native PAGE in TBE on ice; details: protein: recombinant; tags: N-terminal His6; chain copies: 4

N-terminally His-tagged antitoxin GraA (natural protein)
stoichiometry N [1]: 2 | stoichiometry N [2]: 2 | stoichiometry N [3]: 2

AGCTGAATGCTTAACGTTAAGCATTCAGCT (double strand) [Right side mirrored]
Ka [4]: 3.5e+12 M^-2

AAATTAACGAATAACGTTATTCGTTAATTT (double strand) [Left side mirrored]
Ka [4]: 5.2e+12 M^-2

untagged antitoxin GraA co-expressed with His-tagged GraT (natural protein)
stoichiometry N [5]: 2

B1: Variant 6 (dsDNA)
DNA 1: AAATTAACGAATAACGTTAAGCCGGCAGCT
DNA 2: AGCTGCCGGCTTAACGTTATTCGTTAATTT
Ka [6]: 1.5e+13 M^-2

B2: Variant 3 (dsDNA)
DNA 1: AAATTAACGAATAGTGTTAAGCATTCAGCT
DNA 2: AGCTGAATGCTTAACACTATTCGTTAATTT
Ka [6]: 3.9e+11 M^-2

B3: Variant 4 (dsDNA)
DNA 1: AAAGGCACGAATAACGTTAAGCATTCAGCT
DNA 2: AGCTGAATGCTTAACGTTATTCGTGCCTTT
Ka [6]: 4.3e+13 M^-2

B4: graTA operator wild type 33 bp (dsDNA)
DNA 1: AAATTAACGAATAACGTTAAGCATTCAGCTCAT
DNA 2: ATGAGCTGAATGCTTAACGTTATTCGTTAATTT
Ka [7]: < 1e+07 M^-2 | Ka [8]: 3e+13 M^-2

B5: Variant 2 (dsDNA)
DNA 1: AAATTAACGAAGCCCGTTAAGCCGGCAGCT
DNA 2: AGCTGCCGGCTTAACGGGCTTCGTTAATTT
Ka [6]: 4.7e+11 M^-2

B6: Central palindrome (dsDNA)
DNA 1: GAATAACGTTAAG
DNA 2: CTTAACGTTATTC
binding result [9]: no binding

B7: Variant 5 (dsDNA)
DNA 1: AAATTAACGCCGAACGTTAAGCATTCAGC
DNA 2: GCTGAATGCTTAACGTTCGGCGTTAATTT
Ka [6]: 7.1e+12 M^-2

B8: Variant 1 (dsDNA)
DNA 1: AAATTAACGAATAACGGGCCGCATTCAGCT
DNA 2: AGCTGAATGCGGCCCGTTATTCGTTAATTT
Ka [6]: 2.1e+09 M^-2

B9: Upstream half (dsDNA)
DNA 1: AAATTAACGAATAACGTTAAG
DNA 2: CTTAACGTTATTCGTTAATTT
binding result [9]: no binding

B10: Downstream half (dsDNA)
DNA 1: AATAACGTTAAGCATTCAGCT
DNA 2: AGCTGAATGCTTAACGTTATT
binding result [9]: no binding
